T1: mouse ICOS-mFc (Chimerigen) (mouse, UniProt Q9WVS0 21-141, limits assumed)
T1 construct: Bought; also called recombinant mouse ICOS protein; mICOS; not shown: mouse Fc of the bought fusion
T1 sequence: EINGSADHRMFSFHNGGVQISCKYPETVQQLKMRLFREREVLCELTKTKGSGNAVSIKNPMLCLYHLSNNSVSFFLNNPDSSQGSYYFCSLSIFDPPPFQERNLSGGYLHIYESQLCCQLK

T2: Biotinylated human ICOS protein (human, UniProt Q9Y6W8 21-140, limits assumed, biotinylated (sites not given))
T2 construct: Captured on the NLC chip in the avidity SPR
T2 sequence: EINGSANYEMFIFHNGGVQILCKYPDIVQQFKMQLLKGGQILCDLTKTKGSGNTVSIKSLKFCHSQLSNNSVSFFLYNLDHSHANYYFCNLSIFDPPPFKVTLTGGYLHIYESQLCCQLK

T3: mouse ICOS expressed on CHO cells (mouse, UniProt Q9WVS0 21-200)
T3 construct: also called CHO-S cells transfected with mouse ICOS; mICOS
T3 sequence (looked up): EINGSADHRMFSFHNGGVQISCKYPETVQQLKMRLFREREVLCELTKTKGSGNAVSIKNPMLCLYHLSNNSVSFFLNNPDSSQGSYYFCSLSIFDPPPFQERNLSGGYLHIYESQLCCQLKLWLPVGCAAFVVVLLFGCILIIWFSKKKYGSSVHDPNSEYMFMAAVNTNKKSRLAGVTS

T4: human ICOS expressed on cells (human, UniProt Q9Y6W8 21-199)
T4 sequence: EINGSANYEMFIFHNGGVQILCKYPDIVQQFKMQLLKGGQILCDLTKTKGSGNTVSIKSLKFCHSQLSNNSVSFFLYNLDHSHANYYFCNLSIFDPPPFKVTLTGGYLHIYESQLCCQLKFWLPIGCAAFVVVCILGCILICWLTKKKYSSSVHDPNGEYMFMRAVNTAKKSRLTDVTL

T5: human ICOS-mFc (Chimerigen) (human, UniProt Q9Y6W8 21-140)
T5 construct: Bought; also called recombinant human ICOS protein; hICOS; not shown: mouse Fc of the bought fusion
T5 sequence: T2 sequence

B1: STIM003 (antibody, human IgG1, kappa)
heavy: not shown
light: EIVLTQSPGTLSLSPGERATLSCRASQSVSRSYLAWYQQKRGQAPRLLIYGASSRATGIPDRFSGDGSGTDFTLSISRLEPEDFAVYYCHQYDMSPFTFGPGTKVDIKRTVAAPSVFIFPPSDEQLKSGTASVVCLLNNFYPREAKVQWKVDNALQSGNSQESVTEQDSKDSTYSLSSTLTLSKADYEKHKVYACEVTHQGLSSPVTKSFNRGEC
notes: Anti-ICOS monospecific antibody, tested as human IgG1; also called STIM003 monoclonal IgG1 antibody
B2: STIM001 (antibody, human IgG1, kappa)
heavy: not shown
light: DIVMTQSPLSLPVTPGEPASISCRSSQSLLHSNEYNYLDWYLQKPGQSPQLLIFLGSNRASGVPDRFSGSGSGTDFTLKITRVEAEDVGIYYCMQSLQTPLTFGGGTKVEIKRTVAAPSVFIFPPSDEQLKSGTASVVCLLNNFYPREAKVQWKVDNALQSGNSQESVTEQDSKDSTYSLSSTLTLSKADYEKHKVYACEVTHQGLSSPVTKSFNRGEC
notes: Anti-ICOS monospecific antibody, tested as human IgG1; also called STIM001 monoclonal IgG1 antibody

Key:
[1] = target: T1, mouse ICOS-mFc (Chimerigen); assay: HTRF, mouse ICOS-mFc, competitor mouse B7-H2-Alexa 647, n1
Description: (§1) 5 μl of human ICOS-mFc (Chimerigen) at 20 nM (5 nM final) or 5 ul of mouse ICOS-mFc (Chimerigen) at 4 nM (1 nM final) were added to relevant assay wells. Plate was incubated for 1 hour (hr) at room temperature (RT).
(§2) After incubation, assay was read on Envision plate reader (Perkin Elmer) using a standard HTRF protocol. 620 nm and 665 nm channel values were exported to Microsoft Excel and % Delta-F and % Neutralisation calculations performed. Titration curves and IC50 values [M] were plotted using Graphpad (Prism). IC50 values were calculated by first transforming the data using equation X=Log(X). The transformed data was then fitted using nonlinear regression, using fitting algorithm, log (inhibitor) vs. response—variable slope (four parameters).

[2] = target: T1, mouse ICOS-mFc (Chimerigen); assay: HTRF, mouse ICOS-mFc, competitor mouse B7-H2-Alexa 647, mean as told in the text (table prints 0.37)
[3] = target: T2, Biotinylated human ICOS protein; assay: SPR ProteOn avidity format, biotinylated human ICOS on NLC chip, antibody analyte, 25 C
Description: Biotinylated human ICOS protein diluted at 7.5 μg/mL in running buffer (1× HBS-EP+ Buffer Technova, cat. No. H8022) was captured on a NLC sensor chip (Bio-Rad, cat No 1765021). The surface was then blocked using biocytin (Sigma Aldrich, cat No B1758) at 1 mg/mL.
The assay was carried out at 25° C.
The buffer injection (i.e. 0 nM) was used to double reference the sensorgrams. The analysis was carried out using the equilibrium model inherent to the ProteOn's analysis software for each mAb² construct.

[4] = target: T3, mouse ICOS expressed on CHO cells; assay: Flow cytometry on CHO-S mouse ICOS cells, anti-human IgG AF647, N=3
Description: CHO—S cells transfected with either human ICOS or mouse ICOS were resuspended in FACS buffer (PBS+1% w/v BSA+0.1% w/v sodium azide) and transferred to a 96-well V-bottom plate (Greiner) at a density of 1×10⁵ cells per well. mAb and mAb² were titrated in FACS buffer, 1 in 3 dilution across 11 points from a starting working concentration of 400 nM. Plates were centrifuged at 300×g for 3 minutes, supernatant discarded and 50 μL mAb or mAb² solution were added to cells and incubated at 4° C. for 1 hour. Cells were washed with 150 μL of PBS and centrifuged at 300×g for 3 minutes, supernatant was discarded and cell pellet resuspended in 150 μL PBS added. This wash step was repeated twice. Bound mAb or mAb² was detected by addition of 50 μL of anti-human 647 (Jackson ImmunoResearch) diluted to 3 ug/ml in FACS buffer. Cells were incubated for 1 hour at 4° C. in the dark. Cells were washed with 150 μL of PBS and centrifuged at 300 g for 3 minutes, supernatant was discarded and cell pellet resuspended in 150 μL PBS added. This wash step was repeated twice. Cells were fixed with 25 μL 4% v/v paraformaldehyde, incubated for 20 minutes at 4° C., cells were pelleted by centrifugation at 300×g and the supernatant discarded. […] AlexaFluor 647 signal intensity (geometric mean) was measured by flow cytometry using a Beckman Coulter CytoFLEX instrument.

[5] = target: T4, human ICOS expressed on cells; assay: cell-based or functional assay
[6] = target: T1, mouse ICOS-mFc (Chimerigen); assay: HTRF, mouse ICOS-mFc, competitor mouse B7-H2-Alexa 647, n2
Description: as §1, §2

[7] = target: T5, human ICOS-mFc (Chimerigen); assay: HTRF, human ICOS-mFc, competitor human B7-H2-Alexa 647, n1
Description: as §1, §2

[8] = target: T1, mouse ICOS-mFc (Chimerigen); assay: HTRF, mouse ICOS-mFc, competitor mouse B7-H2-Alexa 647, n3
Description: as §1, §2

[9] = target: T4, human ICOS expressed on cells; assay: cell-based or functional assay; remark: listed apart in the source
[10] = target: T6, mouse PD-L1 expressed on CHO cells (mouse, UniProt Q9EP73 19-290); assay: Flow cytometry on CHO mouse PD-L1 cells (sentence prints 'human PD-L1')
T6 construct: also called CHO-S cells transfected with mPD-L1; CHO mouse PD-L1
T6 sequence (Q9EP73 19-290 limits assumed): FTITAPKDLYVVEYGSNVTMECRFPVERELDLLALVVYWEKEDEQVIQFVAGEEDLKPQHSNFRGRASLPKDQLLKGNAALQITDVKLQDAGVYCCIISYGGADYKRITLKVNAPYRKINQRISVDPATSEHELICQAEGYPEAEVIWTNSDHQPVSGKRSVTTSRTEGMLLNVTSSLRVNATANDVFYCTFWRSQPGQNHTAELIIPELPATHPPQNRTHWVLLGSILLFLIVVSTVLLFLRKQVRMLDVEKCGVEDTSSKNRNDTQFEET

| Binder | IC50 [1] [nM] | IC50 [2] [nM] | koff [3] [s⁻¹] | EC50 [4] [nM] | EC50 of IFN-γ production, plate-bound antibody, human T-cells + CD3/CD28 beads, donor 276 [5] [nM] | EC50 of IFN-γ production, plate-bound antibody, human T-cells + CD3/CD28 beads, donor 278 [5] [nM] | EC50 of IFN-γ production, plate-bound antibody, human T-cells + CD3/CD28 beads, donor 289 [5] [nM] | EC50 of IFN-γ production, plate-bound antibody, human T-cells + CD3/CD28 beads, donor 295 [5] [nM] | EC50 of IFN-γ production, plate-bound antibody, human T-cells + CD3/CD28 beads, median [5] [nM] | IC50 [6] [nM] | IC50 [7] [nM] | IC50 [8] [nM] | EC50 of ADCC (specific dye release), ICOS-transfected CCRF-CEM + NK cells, Donor 326 [9] [nM] | EC50 of ADCC (specific dye release), ICOS-transfected CCRF-CEM + NK cells, Donor 334 [9] [nM] | EC50 of ADCC (specific dye release), ICOS-transfected CCRF-CEM + NK cells, Donor 341 [9] [nM] | EC50 of ADCC (specific dye release), ICOS-transfected CCRF-CEM + NK cells, column 'Median' [9] [nM] | binding result [10] |
| --- | --- | --- | --- | --- | --- | --- | --- | --- | --- | --- | --- | --- | --- | --- | --- | --- | --- |
| B1 | 0.87 | 0.12 | 0.000449 | 7.28 | 7.1 | 3.8 | ~4 | ~11.6 | 5.55 | 0.14 | 0.43 | 0.11 | 0.0212 | 0.0037 | 0.0067 | 0.0105 | no binding (tested: 22 nM) |
| B2 | 7.98 | – | 0.000456 | 20.1 | ~9.9 | ~10.2 | ~11.2 | 14.5 | 10.7 | 8.91 | 0.96 | 9.25 | 0.0426 | 0.0205 | 0.0076 | 0.0236 | no binding (tested: 22 nM) |
